Read-outs that look alike come from different tables or passages of the source.
Test: Plasma kinetic after single intravenous administration (HPLC with fluorimetric detector)
Format: in vivo, CD-1(ICR)BR mice
Details: mice; for plasma concentration (mean from a triplicate result): LOD=0.0012 nmol/mL; for clearance: read-out: total plasma clearance; for Vd: read-out: volume distribution at steady state (Vdss)
Experimental: The plasma kinetic of the NIRF probe DA364 was evaluated after a single intravenous administration in CD-1(ICR)BR mice.
The fluorescent probe is administered at dose of 0.4 μmol/kg, corresponding to about 10 times the effective dose used in imaging studies (1 nmol/mouse, considering an average mouse body weight of 25 g). Animals were sacrificed at different time points up to and including 14 days after treatment and blood samples were collected for the determination of DA364 content, performed by using an HPLC method coupled with a fluorimetric detector.
The NIR agent DA364, pre-warmed at room temperature, was intravenously injected at a dose of 0.4 μmol/kg, via tail vein, at an injection rate of 1 mL/min with a Harvard infusion pump. The administered dose corresponds to about 10 times the effective dose used in imaging studies. The intravenous administration route was chosen as possible route of exposure for humans.
Animals (three for each time point) were sacrificed before and 5 min, 10 min, 20 min, 30 min, 60 min, 4 h, 24 h, 48 h, 7 days and 14 days after DA364.
The day of sacrifice animals were anesthetized with sevoflurane, at an expiratory concentration of 3-4% in induction and 2-3% in maintenance and then sacrificed by decapitation. Blood for HPLC determinations (at least 0.5 mL) was collected using heparinized tubes. Plasma obtained after centrifugation (2100 g for 10 min) was stored at −80° C. until the day of analysis.
Determination of the amount of DA364 in plasma samples was carried out by an HPLC method coupled with a fluorimetric detector previously prompted.
Plasma samples (S) were prepared by adding 100 μL of acetate buffer and 100 μL of a Methanol Acetonitrile solution (50:50) to 100 μL of diluted plasma. Tubes will be stirred and subsequently centrifuged at 4° C. for 10 minutes at 13000 g. Ten microliters of the clear supernatant will be injected into the HPLC equipment. Appropriate dilution was performed in case of plasma samples too concentrated.
The HPLC determination was performed by interpolating calibration curves of DA364 in plasma and organs, prepared by assaying calibration standard samples (CAL) (6 concentrations, 3 replicates for each concentration) of the fluorescent agent DA364.
Blood for HPLC determinations (at least 0.5 mL) was collected in heparinized tubes. Plasma concentration of DA364 was measured by an HPLC method coupled with a fluorimetric detector.
To evaluate the systemic exposure, Cmax and the area under the plasma DA364 concentration curve as a function of time (AUC) were calculated by non-parametric methods using the computer program WIN-NONLIN 6.3 (WinNonlin 6.3 SCI Software, Lexington, Ky., USA). For the tested dose, a non-compartmental analysis was performed using the average plasma concentrations from 3 animals for each time point. For Cmax and the corresponding tmax the observed values were reported. Area under the plasma concentration-time curve to the last observable plasma concentration (AUC(0 to t)) was calculated from observed data using the logarithmic trapezoidal method. […].

[1] = CD-1(ICR)BR, mouse, plasma, iv, 0.4 umol/kg, 0.4 μmol/kg i.v.
[2] = CD-1(ICR)BR, mouse, plasma, iv, 0.4 umol/kg, 0.4 μmol/kg i.v., per animal

In the case of `CC[N+]1=C(/C=C/C=C/C=C2/N(CCCCCC(=O)NC[C@@H]3C[C@@H]4CC[C@H]5C(=O)N[C@@H](CCCNC(=N)N)C(=O)NCC(=O)N[C@@H](CC(=O)O)C(=O)N[C@H]3C(=O)N45)c3ccc4c(S(=O)(=O)O)cc(S(=O)(=O)O)cc4c3C2(C)C)C(C)(C)c2c1ccc1c(S(=O)(=O)[O-])cc(S(=O)(=O)O)cc21` [DA364], the “plasma concentration (mean from a triplicate result)” value (from here on “plasma concentration”) (1440 min after 0.4 μmol/kg i.v.) is reported as “<LOD”, the “plasma concentration” value (2880 min after 0.4 μmol/kg i.v.) is reported as “<LOD” and the “plasma concentration” value (10080 min after 0.4 μmol/kg i.v.) is reported as “<LOD”. For the same compound, the “plasma concentration” value (20160 min after 0.4 μmol/kg i.v.) was “<LOD”, the AUC(0-inf) [1] was 1.28 µM·h and the Cmax [1] was 1630 nM. It also gave a Tmax [1] of 5 min, a clearance [2] of 0.15 mL/min and a Vd [2] of 0.01 L. It also gave a half-life (CD-1(ICR)BR, mouse, plasma, iv, 0.4 umol/kg, 0.4 μmol/kg i.v., read-out: half life associated with the terminal elimination phase) of 64 min, a clearance [1] of 5 mL/min/kg and a Vd [1] of 0.329 L/kg. For the same compound, the level at time molar at 5 min (CD-1(ICR)BR, mouse, plasma, iv, 0.4 umol/kg, 5 min after 0.4 μmol/kg i.v., read-out: plasma concentration (mean from a triplicate result)) was 1630 nM, the level at time molar at 10 min (CD-1(ICR)BR, mouse, plasma, iv, 0.4 umol/kg, 10 min after 0.4 μmol/kg i.v., read-out: plasma concentration (mean from a triplicate result)) was 1100 nM and the level at time molar at 20 min (CD-1(ICR)BR, mouse, plasma, iv, 0.4 umol/kg, 20 min after 0.4 μmol/kg i.v., read-out: plasma concentration (mean from a triplicate result)) was 612 nM. The level at time molar at 0.5 h (CD-1(ICR)BR, mouse, plasma, iv, 0.4 umol/kg, 30 min after 0.4 μmol/kg i.v., read-out: plasma concentration (mean from a triplicate result)) was 518 nM, the level at time molar at 1 h (CD-1(ICR)BR, mouse, plasma, iv, 0.4 umol/kg, 60 min after 0.4 μmol/kg i.v., read-out: plasma concentration (mean from a triplicate result)) was 278 nM and the level at time molar at 4 h (CD-1(ICR)BR, mouse, plasma, iv, 0.4 umol/kg, 240 min after 0.4 μmol/kg i.v., read-out: plasma concentration (mean from a triplicate result)) was 51 nM.

Source: patent publication US10682427B2, “Intra-operative imaging” (BRACCO IMAGING S.P.A., priority 2014, dated 2020)
